The series in a line: soluble on expression in E. coli; label from the status in PepcDB or PDB records.
In the case of “MAAALPRTLGELQLYRILQKANLLSYFDAFIQQGGDDVQQLCEAGEEEFLEIMALVGMASKPLHVRRLQKALRDWVTNPGLFNQPLTSLPVSSIPIYKLPEGSPTWLGISCSSYERSSNAREPHLKIPKCAATTCVQSLGQGKSDVVGSLALQSVGESRLWQGHHATESEHSLSPADLGSPASPKESSEALDAAAALSVAECVERMAPTLPKSDLNEVKELLKTNKKLAKMIGHIFEMNDDDPHKEEEIRKYSAIYGRFDSKRKDGKHLTLHELTVNEAAAQLCVKDNALLTRRDELFALARQISREVTYKYTYRTTKSKCGERDELSPKRIKVEDGFPDFQDSVQTLFQQARAKSEELAALSSQQPEKVMAKQMEFLCNQAGYERLQHAERRLSAGLYRQSSEEHSPNGLTSDNSDGQGERPLNLRMPNLQNRQPHHFVVDGELSRLYPSEAKSHSSESLGILKDYPHSAFTLEKKVIKTEPEDSR”, the “soluble on expression in E. coli” value is given as “soluble”.

“MTYSIVAISGSPSRNSTTAKLAEYALAHVLARSDSQGRHIHVIDLDPKALLRGDLSNAKLKEAVDATCNADGLIVATPIYKASYTGLLKAFLDILPQFALAGKAALPLATGGSPAHVLALDYGLRPVLHSMGVRHVVQSFFLVQSQFSVVDGKLAVEDDVASQLNNAIDHFRLSLSSEPSTRHLGHPRPSLDATRAA”: the “soluble on expression in E. coli” value was “soluble”.

“MSLNFDFAENDFRPLAARMRPRTLDEYCGQQHLIGQGKPLRRAIESGHAHSMILWGPPGTGKTTLAEIIAYRINAEVERLSAVTSGVKDIREAIERAKRNRLADRQTILFVDEVHRFNKSQQDAFLPHIEDGTIIFIGATTENPSFELNNALLSRTRVYILKSLTTADVQRVLQQAVADEERGLGKARLNLQANLLHLLAEYVNGDARLALNCLELMADMAEEDENGKKIDRTLLTEVLGERQARFDKGGDRFYDLISAVHKSIRGSAPDAALYWYARIITAGGDPLYVARRLLAIASEDIGNADPRAMQVALSAWDCFTRVGAAEGERAIAQAIVYLAVAPKSNAVYQAFNAAKALAKQAPDYDVPRHLTNAPTQLLKELGNHAEYRYAHDEPNAYAAGENYFPEPLKDTRFYFPGARGMEIKIKEKLDWLRNLDQQSENIREGHHHHHH”: the “soluble on expression in E. coli” value is given as “not soluble”.

As to “MAEWCADHLRNCEGWKSAGLELSTTSDENAKWLDACIRQLVSWSDCTSLGGFHTSIEKLVASDPEAIMARTFLVGLSGLGTEAAARNVEFAKKMDQLEIDAEKYGNAREKRHAKAAILWGRGKHHEAAIEWDKLLDDYPTDLIAVKFSHDAHFFNGNQIGKKNAIEKVIHKWNADLPCYSYLHGMYAFGLEECGIYDDAETQADRALQLNRFDCWASHAKAHVLEMNGRHKEGKEFMYKTEDDWRQGWMLASHNYWHTALFHIEYAEYESALGIFDREIANRFNKTNSLLDMVDASSLLWRLELEGVNVGRDRWRKIEHLSKFIDNHSIVFNDVHLGLAIYRQEDLETEKKLRNSLEKYSSLLSEDNAQISKTIGMPLYDGMLDFARCDYDTAAETMYPIRDKVVQIGGSHAQRDLFVQTLIQSCILSKDPKNWALTPELLVERETLKHDSLLGQRLADKFRALHPL”, the “soluble on expression in E. coli” value is listed as “not soluble”.

With “MGYLVSKHLALSLGSSKRGYILSPIMPPVVIVEDDGPGYPFDIYYSEGKRVLTIVHRANPEREVQDEYLHTLSLWLREMGVGRVILVGGLNMEFMPREEKHGYRWLANRHYKGPKLEAPTMEAGLGVVGPLALLYMYLDYLGVPAAMVLPYSVAERVDYEAAIRGLKVIGGSIIGVEIPTDEIEKMASMQREILETISRMIEGEEEKESGGIYM”, the “soluble on expression in E. coli” value was “not soluble”.

On to “GAQVSTQKTGAHESIIHYTNINYYKDAASNSANRQDFTQDPGKFTEPVKDIMVKSLPALN”, for which the “soluble on expression in E. coli” value is reported as “soluble”.

Turning to “GSSGSSGMQLEIQVALNFIISYLYNKLPRRRVNIFGEELERLLKKKYEGHWYPEKPYKGSGFRCIHIGEKVDPVIEQASKESGLDIDDVRGNLPQDLSVWIDPFEVSYQIGEKGPVKVLYVDDNSGPSSG”, the “soluble on expression in E. coli” value is on record as “soluble”.

Take “MIAATPQAMDKQPSAKNQPCGIDKEVGTIANTVITLMPKYIDTNVIVLRHSCANRPPWRNAATNHANNPRNPSKNSTDITTPIDAAISGTACPFIRFSNSAIN”: the “soluble on expression in E. coli” value is recorded as “not soluble”.

For “MQAGPALMRILPISTIKGKLNEFVDAVSSTQDQITITKNGAPAAVLVGADEWESLQETLYWLAQPGIRESIAEADADIASGRTYGEDEIRAEFGVPRRPHDYKDDDDK”, the “soluble on expression in E. coli” value was “soluble”.

On to “MSLTKTLIVNAHPDFRNAAHYSVQLEQAFLQLFQTRFPNDTVDVLNLYDTVIPQATVPELLGIWEKQAQHVNLSIEEQRLFAINQQLLQQFKAHHRIVIAMPLHNFNVPARLKDYIDNILVARETFRYTENGSVGLMTDNYRVMLLQASGSIYTRNDRYTPMEFSRLYLDKMFTEIMGFDRFEIVRAQGLQTNGVAVSQALKQAKMDLKAAFERFYDEGHHHHHH”, for which the “soluble on expression in E. coli” value is reported as “soluble”.

As for “MGSDKIHHHHHHMVDVLVIGGGNAALCAALTAREAGASVLLLEAAPREWRGGNSQHTRNLRCMHDAPQDVLVESYPEEEFWQDLWRVTDGNTNEALARLVIRTSSQCRDWMRKHGVNFQPPLSGALHVARTNAFFMGGGKALVNAYYRSAERLGVQVRYNTPVHALELHDGEFVAALAGSERITAKACVLAAGGFESNREWLREAWGENARGEWPADNFLIRGTRFNQGVLLKFMMDAGADIIGDPSQSHCVAIDARAPLYDGGICTRVDCVSLGIVVNRDAERFYDEGEDFWPKRYAIWGRLVAQQPGQIGYSIIDSKAIGHFMPPVFPGAQANTLAELACQLGLDAEKFTHTVTQYNQACQPGHFDHTLLDDCATKNLTPAKTHWARPLDAPPYYGYALRPGITFTYLGLKVNERAAVHFAGHPSRNLFVAGEMMAGNVLGKGYTAGVGMSIGTTFGRIAGIEAARAAHKEAQHETA”, the “soluble on expression in E. coli” value was “not soluble”.

For the sequence “MQRVTITLDDDLLETLDSLSQRRGYNNRSEAIRDILRGALAQEATQEHGTQGFAVLSYVYEHEKRDLASRIVSTQHHHHDLSVATLHVHINHDDCLEIAVLKGDMGDVQHFADDVIAQRGVRHGHLQCLPKED”, the “soluble on expression in E. coli” value is given as “not soluble”.

Regarding “MNTQSPPSPHDPHGAAALPFRLWTAEERRASLDTALREWRDGEDVWVYGYGSLIWRPDFDFVERRLATLHGHHRALCLWSRVNRGTPECPGLVFGLDRGGSCRGVVYRLAGRQVPDYFPALWDREMSTGAYLPRWLRCATEHGPVNALVFIMNRANPAYIRALPEPELLAIVRRASGRYGPCTEYVVQTAQALRQAGIRDARLEQIARQLEADVHPLGVLEHHHHHH”, the “soluble on expression in E. coli” value is on record as “not soluble”.

With “HYNTEILKSIDNEWRKTQCMPREVCIDVGKEFGVATNTFFKPPCVSVYRCGGCCNSEGLQCMNTSTSYLSKTLFEITVPLSQGPKPVTISFANHTSCRCMSKLDVYRQVHSIIRR”, the “soluble on expression in E. coli” value was “soluble”.

“MEFPDLGAHCSEPSCQRLDFLPLKCDACSGIFCADHVAYAQHHCGSAYQKDIQVPVCPLCNVPVPVARGEPPDRAVGEHIDRDCRSDPAQQKRKIFTNKCERSGCRQREMMKLTCDRCGRNFCIKHRHPLDHECSGEGHQTSRAGLAAISRAQGLASTSTAPSPSRTLPSSSSSSRATPQLPTRTASPVIALQNGLSEDEALQRALELSLAEAKPQVLSSQEEDDLALAQALSASEAEYQQQQAQSRSLKPSNCSLC”: the “soluble on expression in E. coli” value was “soluble”.

“MSNEMKILLANPRGFCAGVDRAISIVERALELYQPPIYVRHEVVHNRFVVEGLKQRGAIFVEELHEVPDNNIVIFSAHGVSQAVRQEAKQRDLTVFDATCPLVTKVHMEVARASRRNMEVVLIGHAGHPEVEGTMGQYSSETGGMYLVETPADVEKLKAIVKDPSDLHYVSQTTLSVDETADVIEELRRVFPDIQGPRKDDICYATQNRQDAVRELAGDVDVMVVVGSKNSSNSTRLKELAEKLGTPGYLTDCPEDIKPEWFEGKTKVGVTAGASAPEELVNQILERIKELVGARSVDEVLGREENMFFEVPKELQIKQVD”: the “soluble on expression in E. coli” value is “not soluble”.

Consider “MSLKYLIDLHTHTIVSGHAYTTLLENIKQASQIGIKILGTSEHGPKMPGAPHIWYFGNMNKVPRKIYDVTVLRGCEADILNSNGDLDIPERIQNELDYIIASLHDVCIEPGTIEDNTKALLNAMNNPNIDILGHTGNPMYPIDIDAVVSKAKEKNVLIEINNGSLSGSREGSYDNCKKIAQACKKKGVKVILGTDSHISFTIGNFDKVQKLLDSVDMPKELIMNTDEKKIVEYLKAKGKLKNEGHHHHHH”, for which the “soluble on expression in E. coli” value is “soluble”.

(Values after the DeepSol protein solubility set.)
